Measurements published in article PMC11347664, “KHSRP ameliorates acute liver failure by regulating pre-mRNA splicing through its interaction with SF3B1” (Cell Death & Disease, 2024).

Target: T1, SF3B1-3 (pET15b-SF3B1-3, amino acids 955–1304) (UniProt O75533 955-1304)
T1 construct: SF3B1, amino acids 955–1304, HEAT 11–22 domain; methods are in the supplement; also called HEAT 11–22 domain of SF3B1; source: recombinant protein from pET15b-SF3B1-3
Assay: pull-down; cell-free system; recombinant KHSRP-KH4Q and SF3B1-3; inputs and pulled-down proteins detected by Coomassie staining and Western blotting
Conditions: both partners purified

T1 sequence (O75533 955-1304): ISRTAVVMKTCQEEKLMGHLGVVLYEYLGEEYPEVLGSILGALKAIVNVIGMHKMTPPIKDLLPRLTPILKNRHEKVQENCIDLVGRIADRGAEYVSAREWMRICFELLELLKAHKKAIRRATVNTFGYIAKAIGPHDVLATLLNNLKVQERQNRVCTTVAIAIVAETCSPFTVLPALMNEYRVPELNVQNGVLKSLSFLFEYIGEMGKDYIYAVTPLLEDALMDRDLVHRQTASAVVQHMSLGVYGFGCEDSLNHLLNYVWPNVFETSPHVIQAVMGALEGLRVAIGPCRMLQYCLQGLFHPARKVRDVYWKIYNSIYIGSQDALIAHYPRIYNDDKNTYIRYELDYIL

B1: KHSRP-KH4Q (pET15b-KHSRP-KH4Q, amino acids 435–710) (domain or fragment, UniProt Q92945 435-710, looked up)
chain: KCGLVIGRGGENVKAINQQTGAFVEISRQLPPNGDPNFKLFIIRGSPQQIDHAKQLIEEKIEGPLCPVGPGPGGPGPAGPMGPFNPGPFNQGPPGAPPHAGGPPPHQYPPQGWGNTYPQWQPPAPHDPSKAAAAAADPNAAWAAYYSHYYQQPPGPVPGPAPAPAAPPAQGEPPQPPPTGQSDYTKAWEEYYKKIGQQPQQPGAPPQQDYTKAWEEYYKKQAQVATGGGPGAPPGSQPDYSAAWAEYYRQQAAYYGQTPGPGGPQPPPTQQGQQQA
notes: methods are in the supplement; also called KH4–Q-rich domain of KHSRP; source: recombinant protein from pET15b-KHSRP-KH4Q
- binding result: binds
